Test results as given in PMC4412286.

Target: phosphoinositol 3-kinase (PI3-kinase), p85 subunit (human (endogenous in AGS)) (UniProt P27986)
UniProt P27986, sequence (P27986 whole entry): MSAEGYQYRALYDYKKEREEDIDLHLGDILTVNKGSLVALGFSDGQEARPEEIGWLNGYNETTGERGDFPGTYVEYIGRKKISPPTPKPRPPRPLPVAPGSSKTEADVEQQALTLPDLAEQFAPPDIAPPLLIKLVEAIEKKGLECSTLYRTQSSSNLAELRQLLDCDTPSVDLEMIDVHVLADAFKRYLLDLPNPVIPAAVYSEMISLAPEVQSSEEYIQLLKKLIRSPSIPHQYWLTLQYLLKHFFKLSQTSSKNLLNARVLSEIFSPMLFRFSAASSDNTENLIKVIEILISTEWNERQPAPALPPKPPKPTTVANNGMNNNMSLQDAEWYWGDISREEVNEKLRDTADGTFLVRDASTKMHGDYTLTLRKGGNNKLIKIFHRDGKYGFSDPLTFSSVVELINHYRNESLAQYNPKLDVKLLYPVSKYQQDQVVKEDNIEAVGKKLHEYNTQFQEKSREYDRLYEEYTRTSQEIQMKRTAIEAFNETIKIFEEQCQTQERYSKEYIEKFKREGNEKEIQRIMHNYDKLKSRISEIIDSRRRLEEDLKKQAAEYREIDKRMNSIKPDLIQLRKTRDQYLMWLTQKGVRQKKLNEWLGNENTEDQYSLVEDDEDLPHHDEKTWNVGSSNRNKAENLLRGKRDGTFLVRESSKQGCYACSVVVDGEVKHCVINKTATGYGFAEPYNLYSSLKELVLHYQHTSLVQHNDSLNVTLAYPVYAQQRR

Substance | phosphorylation of AKT at threonine 308 in AGS cells after 24 h co-culture with the EPIYA isogenic strain (immunoblot, fold) | phosphorylation of AKT at threonine 308 in AGS cells after 24 h co-culture with the EPIYT isogenic strain (immunoblot, fold)
CagA of H. pylori strain 147C with EPIYA B-TPM, HA fusion (natural protein) | 1.7 fold | 
CagA of H. pylori strain 147C with EPIYT B-TPM (wild-type 147C sequence), HA fusion (natural protein) |  | 2.4 fold
